This passage reports peptide exchange yield results from patent publication US20170165337A1 (IMMATICS BIOTECHNOLOGIES, published 2017).

In this assay the target is T1, HLA-A*02:01 (human).
T1 construct: MHC class I monomer of the UV-ligand exchange assay; also called peptide-receptive MHC molecules; MHC class I
Nature of the assay: UV peptide-exchange ELISA. The text has this: Candidate peptides for T cell based therapies according to the present invention were further tested for their MHC binding capacity (affinity). The individual peptide-MHC complexes were produced by UV-ligand exchange, where a UV-sensitive peptide is cleaved upon UV-irradiation, and exchanged with the peptide of interest as analyzed. Only peptide candidates that can effectively bind and stabilize the peptide-receptive MHC molecules prevent dissociation of the MHC complexes. To determine the yield of the exchange reaction, an ELISA was performed based on the detection of the light chain (β2m) of stabilized MHC complexes. The assay was performed as generally described in Rodenko et al. (Rodenko et al., 2006).
96 well MAXISorp plates (NUNC) were coated over night with 2 ug/ml streptavidin in PBS at room temperature, washed 4× and blocked forl h at 37° C. in 2% BSA containing blocking buffer. Refolded HLA-A*02:01/MLA-001 monomers served as standards, covering the range of 15-500 ng/ml. Peptide-MHC monomers of the UV-exchange reaction were diluted 100 fold in blocking buffer. Samples were incubated for 1 h at 37° C., washed four times, incubated with 2 ug/ml HRP conjugated anti-β2m for 1 h at 37° C., washed again and detected with TMB solution that is stopped with […]. Absorption was measured at 450 nm. Candidate peptides that show a high exchange yield (preferably higher than 50%, most preferred higher than 75%) are generally preferred for a generation and production of antibodies or fragments thereof, and/or T cell receptors or fragments thereof, as they show sufficient avidity to the MHC molecules and prevent dissociation of the MHC complexes.

Where no end group is shown, it is not given here. [ ]: non-standard residue; d: D form. pS = N[C@@H](COP(=O)(O)O)C(=O)O

For SIIEGPIIKL, the peptide exchange yield is 50 to 75%. To MTAGFSTIAGSV belongs 10 to 20%. To LQALEVLKI belongs 10 to 20%; to ALGEDEITL, 50 to 75%; to KLILLDTPLFL, 50 to 75%.

Turning to LLLAEAELLTL, the peptide exchange yield is 20 to 50%. For KVPAEEVLVAV the value was 50 to 75%; for VVDGMPPGV, 50 to 75%. For LLPTAPTTV the value was 50 to 75%. For IQDRAVPSL, the peptide exchange yield is 20 to 50%. For SALDTITTV the value was 50 to 75%; for ILYNLYDLL, 50 to 75%; for RLLILENILL, 50 to 75%. To VLPAEFFEV belongs 50 to 75%. For NLLDIDAPVTV the value was 50 to 75%. For QLDEPAPQV, the peptide exchange yield is 20 to 50%. For NLTDVVEKL the value was 50 to 75%; for MLLEHGITLV, ≥ 75%. With KLMNDIADI, the peptide exchange yield lay in the range of 20 to 50%. To FVYGESVEL belongs 50 to 75%; to KTLDVDATYEI, 50 to 75%; to LIPEGPPQV, 50 to 75%. For QILSEIVEA the value was 20 to 50%; for ALFTF[pS]PLTV [ALFTFJPLTV], 50 to 75%; for KLGGTPAPA, 20 to 50%. YLLSGDISEA yielded a peptide exchange yield of 50 to 75%.

Molecule LLFDKLYLL came in with a peptide exchange yield of 50 to 75%. As to LVYEAIIMV, the peptide exchange yield was in the range of 50 to 75%.

The molecule LLIGATMQV showed a peptide exchange yield of 50 to 75%. To NLDKLWTLV belongs 20 to 50%. For NLIKTVIKL the value was 50 to 75%; for KLWEGLTELV, 50 to 75%; for AIPPSFASIFL, 50 to 75%. For LLLEETEKQAV the value was 50 to 75%; for LLLEIGEVGKLFV, 50 to 75%; for QLLDTYFTL, 50 to 75%. Molecule LLIPVVPGV yielded a peptide exchange yield of 50 to 75%.

Turning to LLFDHLEPMEL, the peptide exchange yield is 50 to 75%.

RLYEITIEV: the peptide exchange yield was ≥ 75%. Take FMASHLDYL: the peptide exchange yield is 50 to 75%.

LLILENILL showed a peptide exchange yield of 50 to 75%. To LLVLIPVYL belongs 10 to 20%; to ALLRLLPGL, 50 to 75%; to QIAELPATSV, 50 to 75%. To AIDAALTSV belongs 50 to 75%; to VIYTLIHYI, 50 to 75%; to LLSEEEYHL, 50 to 75%. For LLPEGGITAI the value was 50 to 75%; for KLWNVAAPLYL, 50 to 75%.
